In patent US20230248844A1, “C[…] ADC OR AN AOC COMPRISING A VHH, AND A SAPONIN OR A LIGAND-SAPONIN CONJUGATE” (SAPREME TECHNOLOGIES B.V., priority 2020, published 2023):

Molecular target: EGFR (human) (UniProt P00533)
Test: cell-based or functional assay

cetuximab-saporin (antibody)
cell killing (MTS) IC50, titrated alone, MDA-MB-468 cells (EGFR++): 0.3 nM
